Measurements published in patent publication US20110319338A1, “PEPTIDES THAT BIND EUKARYOTIC TRANSLATION INITIATION FACTOR 4E” (The Board of Regents of the University of Texas System, priority 2008, published 2011).
Square brackets hold non-standard residues; d marks the D form. Ends that are not written are not given here.

Biological target: T1, binding of eIF4E to eIF4G (Homo sapiens, UniProt P06730)
T1 construct: endogenous in cells; host or cells: OVCAR-3 cell lysate
Assay: Immunoprecipitation with eIF4E antibody and Western blot with eIF4G antibody, OVCAR-3 cell lysate incubated with peptide
Settings: peptide 3 micromoles per liter, 250 micrograms OVCAR-3 cell lysate
Method: FIGS. 1A-1G. 4EBP peptides bind eIF4E and inhibit binding of eIF4E to eIF4G. (FIG. 1A) Sequences of peptides comprising residues 49 to 68 of 4EBP1 and 4EBP2. (FIG. 1B) Biotinylated peptides (3 micromoles per liter) were incubated with 250 micrograms of OVCAR-3 cell lysate. Peptides were pulled-down using streptavidin-agarose. Precipitates (P) and supernatants (S) were analyzed by Western blot using eIF4E antibody. In (FIG. 1C), immunoprecipitation was performed using eIF4E antibody, and Western blot performed using eIF4G antibody. (FIG. 1D) Sequences of wild-type and mutant 4EBP peptides fused to TAT (mutant residues are highlighted). (FIG. 1E) OVCAR-3 cells were treated with biotinylated peptides (3 micromoles per liter, final concentration) for 16 hours. Internalized peptides were detected by staining fixed cells with Texas Red-conjugated streptavidin. Nuclei were visualized by staining with 4′,6-Diamidino-2-Phenylindole (DAPI). (FIGS. 1F and 1G) OVCAR-3 cell lysates were incubated with peptides as described for FIG. 1B. In (FIG. 1F), immunoprecipitation was performed using streptavidin-agarose and Western blot performed using eIF4E antibody. In (FIG. 1G), immunoprecipitation was performed using eIF4E antibody, and Western blot performed using eIF4G antibody.
FIGS. 3A-3H. Uptake, binding and inhibitory effects of [DLys6]GnRH-4EBP fusion peptides. (FIG. 3A) Sequences of [DLys6]GnRH, and wild-type and mutant 4EBP1 peptides fused to the agonist. (FIG. 3B) Western blot of GnRH-RI levels in OVCAR-3, ES-2, MDA-MB-231, BJ, HUVEC and SKOV3 cells. (FIG. 3C) Detection of biotinylated peptides in OVCAR-3 and SKOV3 by Texas Red-conjugated streptavidin at 16 hours after peptide addition (3 micromoles per liter). In (FIGS. 3D and 3E), biotinylated peptides were incubated with OVCAR-3 cell lysate as described in FIG. 1. In (FIG. 3D), peptide was pulled down using streptavidin-agarose. Precipitates (P) and supernatants (S) were analyzed by Western blot using eIF4E antibody. In (FIG. 3E), immunoprecipitation was performed using eIF4E antibody, and Western blot performed using eIF4G antibody. (FIG. 3F) R-Luc and F-Luc activities were assayed in ES-2-DualLuc cells at 6 hours after addition of the indicated concentrations of peptides, and are expressed relative to the respective luciferase activities in cells incubated without peptide. Shown are results of triplicate assays performed independently two times, and the statistical significance of differences in relative R-Luc and F-Luc activities in cells treated with peptide at a concentration of 10 micromoles per liter (FIG. 3G) Cells of GnRH-RI-positive and -negative lines were treated with the indicated concentrations of peptides. […]

T1 sequence (P06730 2-217 limits assumed): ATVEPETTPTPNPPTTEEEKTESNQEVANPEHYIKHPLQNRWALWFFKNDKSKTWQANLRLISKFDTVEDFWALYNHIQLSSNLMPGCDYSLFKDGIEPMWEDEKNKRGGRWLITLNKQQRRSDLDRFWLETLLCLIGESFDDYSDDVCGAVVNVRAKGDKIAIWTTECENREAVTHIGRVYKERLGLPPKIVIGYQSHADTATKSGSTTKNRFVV

[DLys6]GnRH: GnRH agonist with a D-amino acid substitution at position 6; GnRH-RI-targeting moiety (QHWSY[dK]LRPG; not fully specified (residue 1, C-terminus); ends and bridges not checked)
inhibition of eIF4E binding to eIF4G: not inhibited
